Laboratory results reported in patent US20160046684A1, “Methods and compositions for treatment of PTP1B-related diseases” (BROWN UNIVERSITY, priority 2014, published 2016).
Entries after “also recorded” stand apart in the source; their conditions may differ.

Tests used:
[1] = system: PTP1B; experiment: Phosphatase activity of PTP1B constructs against pNPP (enzyme assay); type: biochemical, human; settings: for phosphatase activity compared with other constructs (in words): FIG. 24, 25, 32B; for Km / kcat: pNPP substrate
Method: Phosphatase activity of PTP1B against the general PTP/DUSP substrate, p-nitrophenyl phosphate (pNPP), was tested in 50 mM HEPES pH 7.5, 150 mM NaCl, 0.5 mM TCEP. 40 μl of enzyme at a 1.5 μM concentration was added to 60 μl of pNPP substrate resuspended in the reaction buffer. See, FIG. 25. The final concentrations of pNPP used in this experiment were […]. The enzyme was incubated with the substrate at 30° C. for 30 min, after which 100 μl of 1 M NaOH was added to a final concentration of 0.5 M NaOH to quench the reaction. Absorbance was measured at 405 nm and the final concentration of p-nitrophenol (pNP) was calculated using the molar extinction coefficient of 18000 M-1 cm-1. A control reaction in which substrate was incubated in the absence of enzyme was subtracted from all other experimental values. All experiments were performed in triplicate.
Enzyme assays were performed at pH 7.5 with 0.15 μM PTP1B to compare the activities of wild-type PTP1B1-301 to mutants with mutations in the L11 loop: PTP1BY152A/F, PTP1BY153A/F, and PTP1BYAYA. See, FIG. 17. […] Ibid. […] Ibid. […] Ibid. […] Ibid. […] Ibid. […] Ibid.
Enzyme assays were performed at pH 7.5 with 0.015 μM PTP1B to compare the activities of wild-type PTP1B1-301 to mutants with mutations in the α3 helix such as PTP1BN193A. See, FIG. 27. […] Ibid. […] Ibid. […] Ibid. […] Ibid. […] Ibid. […] Ibid.
An enzyme assay was used to compare the activity of wild-type PTP1B1-301 to the activity of PTP1B1-284 P185G. See, FIG. 15. Enzyme assays were performed at pH 7.5 with 0.015 μM PTP1B to compare the activities of wild-type PTP1B1-301 to mutants with mutations in the α7 helix. See, FIG. 32A. In one embodiment, these point mutations were made in an amino acid sequence substantially similar to SEQ ID NO: 2.

[2] = Circular dichroism thermal denaturation (melting temperature); type: physicochemical; settings: for melting point (Tm): CD spectropolarimetry, thermal denaturation at 208 nm, 2.5 μM protein
Method: Circular dichroism (CD) spectropolarimetry was used to measure the melting temperatures of PTP1BYAYA, PTP1B1-301, and PTP1B1-284. CD measurements were performed on a Jasco J-815 CD spectropolarimeter. PTP1B samples were dialyzed at 4° C. into 10 mM sodium phosphate, pH 6.8, 150 mM NaCl. Samples were then diluted to a protein concentration of 2.5 μM and placed in a 0.2-cm glass cuvette. Wavelength scans were performed in the far-UV region from 260 to 195 nm at 25° C. at a speed of 20 nm/min. Thermal denaturation scans were performed at 208 nm from 25 to 90° C. at a scan speed of 1° C./min. Raw data were processed using the denatured protein analysis routine implemented in the SepctraAnalysis software and converted to mean residue molar ellipticity using the following equation: [θ]=θ/(10×C×1×n), where θ is ellipticity, C is the molar concentration, 1 is the cell path length in centimeters, and n is the number of residues. Plots are the average of three replicate scans.

[3] = pH 7.5, 0.015 μM PTP1B (FIG. 27, 32A, 32B)
[4] = pH 7.5, 0.15 μM PTP1B (FIG. 17)

Molecule | phosphatase activity compared with other constructs (in words) ([1]; listed as PTP1BΔ7) | Km [1, 3] | kcat [1, 3] | melting point (Tm) [2] | melting point (Tm) ([2]; listed as PTP1B1-284) | Km [1, 4] | kcat [1, 4] | phosphatase activity compared with other constructs (in words) [1] | melting temperature lower than PTP1B1-284 ([2]; difference to PTP1B1-284) | melting temperature lower than for PTP1B1-301 ([2]; difference to PTP1B1-301)
PTP1B1-284/Δ7: truncated PTP1B, residues 1-284, lacking the α7 helix (SEQ ID NO: 3) (protein, The sequence was designed and synthesized) MEMEKEFEQIDKSGSWAAIYQDIRHEASDFPCRVAKLPKNKNRNRYRDVSPFDHSRIKLHQEDNDYINASLIKMEEAQRSYILTQGPLPNTCGHFWEMVWEQKSRGVVMLNRVMEKGSLKCAQYWPQKEEKEMIFEDTNLKLTLISEDIKSYYTVRQLELENLTTQETREILHFHYTTWPDFGVPESPASFLNFLFKVRESGSLSPEHGPVVVHCSAGIGRSGTFCLADTCLLLMDKRKDPSSVDIKKVLLEMRKFRMGLIQTADQLRFSYLAVIEGAKFIMGD | lack the activity exhibited by wild-type PTP1B1; also recorded: much lower | 970 ± 100 µM | 1.7 ± 0.07 s⁻¹ | 54.9 °C | 54.87 °C | – | – | – | – | –
Wild-type PTP1B1-301: PTP1B catalytic domain, amino acid residues 1-301 (SEQ ID NO: 2) (protein, The sequence was designed and synthesized) MEMEKEFEQIDKSGSWAAIYQDIRHEASDFPCRVAKLPKNKNRNRYRDVSPFDHSRIKLHQEDNDYINASLIKMEEAQRSYILTQGPLPNTCGHFWEMVWEQKSRGVVMLNRVMEKGSLKCAQYWPQKEEKEMIFEDTNLKLTLISEDIKSYYTVRQLELENLTTQETREILHFHYTTWPDFGVPESPASFLNFLFKVRESGSLSPEHGPVVVHCSAGIGRSGTFCLADTCLLLMDKRKDPSSVDIKKVLLEMRKFRMGLIQTADQLRFSYLAVIEGAKFIMGDSSVQDQWKELSHEDLEP | – | 460 ± 60 µM | 6.2 ± 0.3 s⁻¹ | 55.46 °C | – | 460 ± 60 µM | 6.2 ± 0.3 s⁻¹ | – | – | –
PTP1BS295A/E297A: PTP1B1-301 double mutant in the α7 helix (protein, UniProt P18031 1-301, looked up, variant S295A E297A) MEMEKEFEQIDKSGSWAAIYQDIRHEASDFPCRVAKLPKNKNRNRYRDVSPFDHSRIKLHQEDNDYINASLIKMEEAQRSYILTQGPLPNTCGHFWEMVWEQKSRGVVMLNRVMEKGSLKCAQYWPQKEEKEMIFEDTNLKLTLISEDIKSYYTVRQLELENLTTQETREILHFHYTTWPDFGVPESPASFLNFLFKVRESGSLSPEHGPVVVHCSAGIGRSGTFCLADTCLLLMDKRKDPSSVDIKKVLLEMRKFRMGLIQTADQLRFSYLAVIEGAKFIMGDSSVQDQWKELAHADLEP | – | 580 ± 130 µM | 2.6 ± 0.13 s⁻¹ | – | – | – | – | – | – | –
PTP1BL192A: PTP1B1-301 mutant with mutation in the α3 helix (protein, The sequence was designed and synthesized, PTP1B1-301 mutant with mutation in the α3 helix) MEMEKEFEQIDKSGSWAAIYQDIRHEASDFPCRVAKLPKNKNRNRYRDVSPFDHSRIKLHQEDNDYINASLIKMEEAQRSYILTQGPLPNTCGHFWEMVWEQKSRGVVMLNRVMEKGSLKCAQYWPQKEEKEMIFEDTNLKLTLISEDIKSYYTVRQLELENLTTQETREILHFHYTTWPDFGVPESPASFANFLFKVRESGSLSPEHGPVVVHCSAGIGRSGTFCLADTCLLLMDKRKDPSSVDIKKVLLEMRKFRMGLIQTADQLRFSYLAVIEGAKFIMGDSSVQDQWKELSHEDLEP | – | 610 ± 40 µM | 1.86 ± 0.04 s⁻¹ | 53.89 °C | – | – | – | – | – | –
PTP1BN193A: PTP1B1-301 mutant with mutation in the α3 helix (protein, The sequence was designed and synthesized, PTP1B1-301 mutant with mutation in the α3 helix) MEMEKEFEQIDKSGSWAAIYQDIRHEASDFPCRVAKLPKNKNRNRYRDVSPFDHSRIKLHQEDNDYINASLIKMEEAQRSYILTQGPLPNTCGHFWEMVWEQKSRGVVMLNRVMEKGSLKCAQYWPQKEEKEMIFEDTNLKLTLISEDIKSYYTVRQLELENLTTQETREILHFHYTTWPDFGVPESPASFLAFLFKVRESGSLSPEHGPVVVHCSAGIGRSGTFCLADTCLLLMDKRKDPSSVDIKKVLLEMRKFRMGLIQTADQLRFSYLAVIEGAKFIMGDSSVQDQWKELSHEDLEP | – | 830 ± 70 µM | 1.7 ± 0.06 s⁻¹ | 49.1 °C | – | – | – | – | – | –
PTP1BY153A: PTP1B1-301 mutant with mutation in the L11 loop (protein, UniProt P18031 1-301, looked up, variant Y153A) MEMEKEFEQIDKSGSWAAIYQDIRHEASDFPCRVAKLPKNKNRNRYRDVSPFDHSRIKLHQEDNDYINASLIKMEEAQRSYILTQGPLPNTCGHFWEMVWEQKSRGVVMLNRVMEKGSLKCAQYWPQKEEKEMIFEDTNLKLTLISEDIKSYATVRQLELENLTTQETREILHFHYTTWPDFGVPESPASFLNFLFKVRESGSLSPEHGPVVVHCSAGIGRSGTFCLADTCLLLMDKRKDPSSVDIKKVLLEMRKFRMGLIQTADQLRFSYLAVIEGAKFIMGDSSVQDQWKELSHEDLEP | – | – | – | 53.75 °C | – | 930 ± 180 µM | 3.6 ± 0.29 s⁻¹ | – | – | –
PTP1BYAYA: mutant of PTP1B1-301 having point mutations at Y152 and Y153 (Y152A/Y153A) within the L11 loop (protein, The sequence was designed and synthesized, mutant of PTP1B1-301 having point mutations at Y152 and Y153 (Y152A/Y153A) within the L11 loop) MEMEKEFEQIDKSGSWAAIYQDIRHEASDFPCRVAKLPKNKNRNRYRDVSPFDHSRIKLHQEDNDYINASLIKMEEAQRSYILTQGPLPNTCGHFWEMVWEQKSRGVVMLNRVMEKGSLKCAQYWPQKEEKEMIFEDTNLKLTLISEDIKSAATVRQLELENLTTQETREILHFHYTTWPDFGVPESPASFLNFLFKVRESGSLSPEHGPVVVHCSAGIGRSGTFCLADTCLLLMDKRKDPSSVDIKKVLLEMRKFRMGLIQTADQLRFSYLAVIEGAKFIMGDSSVQDQWKELSHEDLEP | – | – | – | 50.41 °C | – | 450 ± 40 µM | 1.8 ± 0.05 s⁻¹ | much lower | about 4.5 °C | about 5 °C
PTP1BW291A: PTP1B1-301 mutant with point mutation in the α7 helix (protein, UniProt P18031 1-301, looked up, variant W291A) MEMEKEFEQIDKSGSWAAIYQDIRHEASDFPCRVAKLPKNKNRNRYRDVSPFDHSRIKLHQEDNDYINASLIKMEEAQRSYILTQGPLPNTCGHFWEMVWEQKSRGVVMLNRVMEKGSLKCAQYWPQKEEKEMIFEDTNLKLTLISEDIKSYYTVRQLELENLTTQETREILHFHYTTWPDFGVPESPASFLNFLFKVRESGSLSPEHGPVVVHCSAGIGRSGTFCLADTCLLLMDKRKDPSSVDIKKVLLEMRKFRMGLIQTADQLRFSYLAVIEGAKFIMGDSSVQDQAKELSHEDLEP | – | 990 ± 150 µM | 4.5 ± 0.3 s⁻¹ | – | – | – | – | – | – | –
PTP1BY152A: PTP1B1-301 mutant with mutation in the L11 loop (protein, UniProt P18031 1-301, looked up, variant Y152A) MEMEKEFEQIDKSGSWAAIYQDIRHEASDFPCRVAKLPKNKNRNRYRDVSPFDHSRIKLHQEDNDYINASLIKMEEAQRSYILTQGPLPNTCGHFWEMVWEQKSRGVVMLNRVMEKGSLKCAQYWPQKEEKEMIFEDTNLKLTLISEDIKSAYTVRQLELENLTTQETREILHFHYTTWPDFGVPESPASFLNFLFKVRESGSLSPEHGPVVVHCSAGIGRSGTFCLADTCLLLMDKRKDPSSVDIKKVLLEMRKFRMGLIQTADQLRFSYLAVIEGAKFIMGDSSVQDQWKELSHEDLEP | – | – | – | 53.89 °C | – | 960 ± 40 µM | 3.0 ± 0.06 s⁻¹ | – | – | –
